Results on 67 sequences are retold here after the supplement of paper PMC10724198.

The subject of series [1] is Saccharomyces cerevisiae. Kind of series: protein stability index of tFT-peptide fusion in wild type (PSI (0-1 scale)); higher = more stable (slower turnover). Particulars: genetic background: wild type.
Series [2] concerns Saccharomyces cerevisiae. Kind of series: protein stability index of tFT-peptide fusion in deletion strain of DAS1 (PSI (0-1 scale)); higher = more stable (slower turnover).
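Wherever protein stability index of tFT-peptide fusion in deletion strain of DAS1 is given: PSI is a weighted mean of each variant's read distribution over the sorted stability bins, computed only for variants having over 10 reads in total.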
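Wherever protein stability index of tFT-peptide fusion in wild type is given: PSI derived as read-weighted mean over the 8 sorting bins, only variants exceeding 10 total reads kept, mCherry placed adjacent to the peptide and sfGFP distal.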

Take PDKRNTLIKLLN: the protein stability index turned out to be 0.108 in series [1] and 0.599 in series [2].

Consider PDKVNHLIKLLN, for which the protein stability index in series [1] was 0.129; in series [2] it was 0.658.

On to PLKRNHLIKLLN, for which the protein stability index in series [1] stood at 0.135; in series [2], 0.622.

PPLAASFWRVVG: the protein stability index was 0.165 in series [1] and 0.673 in series [2].

As to PQKRNHLIKLLN, the figures for the protein stability index in series [1] and in series [2] were 0.113 and 0.597, respectively.

Regarding PSCAASFWRVVG, the protein stability index turned out to be 0.154 in series [1] and 0.691 in series [2].

For the sequence PSEAASFWRVVG, the protein stability index in series [1] was 0.175; in series [2], 0.702.

On to PSLAANFWRVVG, for which the protein stability index is 0.159 in series [1] and 0.689 in series [2].

PSLAASAWRVVG: the values for the protein stability index in series [1] and in series [2] were 0.155 and 0.666, respectively.

Take PSLAASFWEVVG: the protein stability index in series [1] worked out at 0.697; in series [2], 0.712.

As for PSLAASFWRCVG, the protein stability index in series [1] was found to be 0.144; in series [2], 0.674.

On to PSLAASFWRVSG, for which the protein stability index is 0.205 in series [1] and 0.684 in series [2].

Take PSLAASFWRVVGE: the protein stability index was 0.672 in series [1] and 0.668 in series [2].

For PSLAASFWRVVGG, the figures for the protein stability index in series [1] and in series [2] were 0.651 and 0.682, respectively.

As for PSLAASFWRVVGM, the protein stability index is 0.679 in series [1] and 0.703 in series [2].

Consider PSLAASFWRVYG, for which the protein stability index in series [1] is 0.174; in series [2], 0.691.

Turning to PSLAASHWRVVG, the figures for the protein stability index in series [1] and in series [2] were 0.158 and 0.692, respectively.

PSLAASNWRVVG: the protein stability index in series [1] came out at 0.22; in series [2], 0.692.

For PSLAASQWRVVG, the protein stability index in series [1] amounted to 0.184; in series [2], 0.668.

With PSLEASFWRVVG, the protein stability index in series [1] was 0.121; in series [2], 0.673.

Take PSLKASFWRVVG: the protein stability index was 0.147 in series [1] and 0.678 in series [2].

Consider PSLMASFWRVVG, for which the protein stability index in series [1] is 0.131; in series [2], 0.707.

As for PSLWASFWRVVG, the figures for the protein stability index in series [1] and in series [2] were 0.103 and 0.697, respectively.

As to PWLAASFWRVVG, the results for the protein stability index in series [1] and in series [2] were 0.0915 and 0.717, respectively.

For the sequence QRWRVGLWRGAS, the protein stability index in series [1] was found to be 0.345; in series [2], 0.683.

With RKHKKGQKQKIN, the figures for the protein stability index in series [1] and in series [2] were 0.121 and 0.574, respectively.

For RLAQPLPVQFLN, the figures for the protein stability index in series [1] and in series [2] were 0.0466 and 0.566, respectively.

With RLFQPLPVQFLN, the protein stability index in series [1] amounted to 0.034; in series [2], 0.658.

Regarding RLIGPLPVQFLN, the protein stability index in series [1] came to 0.0842; in series [2], 0.598.

For RLIQCLPVQFLN, the figures for the protein stability index in series [1] and in series [2] were 0.0457 and 0.571, respectively.

For the sequence RLIQELPVQFLN, the values for the protein stability index in series [1] and in series [2] were 0.061 and 0.616, respectively.

As to RLIQLLPVQFLN, the protein stability index in series [1] was found to be 0.0564; in series [2] it was 0.635.

As to RLIQPEPVQFLN, the protein stability index in series [1] came out at 0.215; in series [2], 0.61.

On to RLIQPLNVQFLN, for which the protein stability index in series [1] came out at 0.0919; in series [2], 0.575.

As to RLIQPLPGQFLN, the protein stability index came out at 0.282 in series [1] and 0.612 in series [2].

Consider RLIQPLPVMFLN, for which the protein stability index in series [1] worked out at 0.0639; in series [2], 0.564.

Regarding RLIQPLPVQELN, the protein stability index came to 0.525 in series [1] and 0.703 in series [2].

Regarding RLIQPLPVQFIN, the protein stability index in series [1] is 0.0372; in series [2], 0.583.

For RLIQPLPVQFLNF, the protein stability index in series [1] was found to be 0.462; in series [2], 0.659.

RLIQPLPVQFPN: the protein stability index was found to be 0.622 in series [1] and 0.605 in series [2].

On to RLIQPLPVQMLN, for which the values for the protein stability index in series [1] and in series [2] were 0.0702 and 0.606, respectively.

With RLIQPLPVQTLN, the figures for the protein stability index in series [1] and in series [2] were 0.163 and 0.68, respectively.

Take RLIQPLPVQWLN: the protein stability index in series [1] was 0.0664; in series [2], 0.641.

Take RLIQPLPVYFLN: the results for the protein stability index in series [1] and in series [2] were 0.0711 and 0.729, respectively.

Take RLMQPLPVQFLN: the protein stability index came out at 0.1 in series [1] and 0.572 in series [2].

RLRQPLPVQFLN: the protein stability index is 0.0588 in series [1] and 0.593 in series [2].

Consider RLTQPLPVQFLN, for which the values for the protein stability index in series [1] and in series [2] were 0.0562 and 0.857, respectively.

As to RSIQPLPVQFLN, the protein stability index in series [1] worked out at 0.0915; in series [2] it was 0.643.

For the sequence RSLAASFWRVVG, the protein stability index in series [1] turned out to be 0.117; in series [2], 0.689.

With TKILRQKMNHQN, the protein stability index was found to be 0.148 in series [1] and 0.67 in series [2].

For TVVYLSCVACIN, the protein stability index in series [1] was 0.0176; in series [2] it was 0.0307.

As to VDKRNHLIKLLN, the protein stability index in series [1] is 0.105; in series [2] it was 0.609.

For VKGAVGGWRLVG, the results for the protein stability index in series [1] and in series [2] were 0.149 and 0.691, respectively.

Regarding VQGAVGGWRLVG, the results for the protein stability index in series [1] and in series [2] were 0.14 and 0.708, respectively.

Regarding VRAAVGGWRLVG, the protein stability index in series [1] was 0.14; in series [2] it was 0.681.

Regarding VREAVGGWRLVG, the protein stability index in series [1] came out at 0.143; in series [2], 0.676.

For the sequence VRGAIGGWRLVG, the results for the protein stability index in series [1] and in series [2] were 0.157 and 0.684, respectively.

In the case of VRGAVGCWRLVG, the results for the protein stability index in series [1] and in series [2] were 0.162 and 0.69, respectively.

Turning to VRGAVGGDRLVG, the values for the protein stability index in series [1] and in series [2] were 0.609 and 0.68, respectively.

As for VRGAVGGNRLVG, the protein stability index in series [1] stood at 0.681; in series [2] it was 0.67.

As to VRGAVGGPRLVG, the protein stability index in series [1] stood at 0.661; in series [2], 0.669.

In the case of VRGAVGGWHLVG, the protein stability index was found to be 0.286 in series [1] and 0.671 in series [2].

As to VRGAVGGWRDVG, the protein stability index in series [1] turned out to be 0.606; in series [2] it was 0.629.

Take VRGAVGGWRKVG: the values for the protein stability index in series [1] and in series [2] were 0.133 and 0.68, respectively.

As for VRGAVGGWRLKG, the protein stability index in series [1] came to 0.607; in series [2], 0.673.

Regarding VRGAVGGWRLVF, the figures for the protein stability index in series [1] and in series [2] were 0.564 and 0.677, respectively.

With VRGAVGGWRLVGK, the protein stability index was 0.651 in series [1] and 0.667 in series [2].
